Experimental findings from patent US20200223906A1 (Adimab, published 2020) are described below.

By Kd is commonly meant the concentration at which binding is half-saturated. Low readings indicate a tighter complex, high ones a looser complex.

The target in test [1] is RSV F protein of subtype B (18537) on recombinant mKate-RSV (respiratory syncytial virus subtype B …, UniProt P13843 26-574). Kind of test: cell-based or functional assay.
The target of test [2] is RSV F protein of subtype A (strain A2) on recombinant mKate-RSV (respiratory syncytial virus subtype A …, UniProt P03420 26-574). Kind of test: cell-based or functional assay.
Test [3] has as its target T1, RSV F subtype B, furin-cleaved ectodomain stabilized in the prefusion conformation (DS-Cav1) (Respiratory syncytial virus subtype B).
T1 construct: extracellular domain; Trimeric soluble antigen; also called Prefusion subtype B
Nature of the test: BLI, IgG on AHQ sensor, 100 nM antigen. On the technique in general: In BLI a coated tip is dipped into the sample, and binding shifts an interference pattern.

Test [4] concerns the target T2, RSV F subtype B, furin-cleaved ectodomain stabilized in the postfusion conformation (F ΔFP) (Respiratory syncytial virus subtype B).
T2 construct: extracellular domain; Trimeric soluble antigen; also called Postfusion subtype B
Kind of test: BLI, IgG on AHQ sensor, 100 nM antigen.

Test [5] deals with RSV F protein of subtype B (18537) on recombinant mKate-RSV virus (Respiratory syncytial virus subtype B …, UniProt P13843 26-574). Nature of the test: cell-based or functional assay.
Test [6] has as its target RSV F protein of subtype A (strain A2) on recombinant mKate-RSV virus (Respiratory syncytial virus subtype A …, UniProt P03420 26-574). Nature of the test: cell-based or functional assay.

B1: ADI-19006 (antibody, V domains shown)
VH: EVQLVESGGGLVKPGESVKLSCAASGFTITDSYMAWIRQSPGKGLEWLAYISSTSLFTDYTDSVKGRFIITRDNAENSLYLQMTSLTPADTGVYFCARAKTSYYFYALDVWGPGTLVTVSS
VL: ETTLTQSPGTLSLSPGERATLSCRASQSVNNNYLAWFQHKPGQAPRLLIYNASNRAAGIPDRFSGSGSGTDFTLTISKLEPGDSAVYYCQRYGNSWPFGQGTKVEIK
For B1, in test [1], the “Neut IC50 subtype B” value amounted to 5.06 µg/mL. In test [2], the “Neut IC50 subtype A” value was 4.89 µg/mL.

B2: ADI-18950 (antibody, V domains shown)
VH: EVQLVESGPRLVRPSETLSLTCTVSGGFIKTSSYYWGWIRQPPGKGLEWIGSIYYAGTTYYNPSLQSRVTMSVDTSNNQFSLKLNSVTAADTAVYYCATAWTFDHWGQGTLVTVSS
VL: EIVLTQSPATLSLSPGERATLSCRASQSLSNYLAWYQQKPGQAPRLLIYDASNRATGIPARFSGSGSGTDFTLTISSLEPEDFAVYYCQLRGHWPPTITFGQGTRLEIK
notes: full-length IgG from yeast
Consider B2, for which the values for the Kd in test [3] and in test [4] were 4.18 nM and 0.385 nM, respectively. Further, the “Neut IC50 (µg/ml) subtype B” value in test [5] was over 10 µg/mL. In addition, the “Neut IC50 (µg/ml) subtype A” value in test [6] is over 10 µg/mL.

B3: ADI-18970 (antibody, V domains shown)
VH: QVQLQESGPRLVKPSQTLSLTCTVSGGSISSGDYYWSWIRQPPGKGLEWIGYIYYSGSTHYNPSLKSRVSMSVDTAKNQFSLKLTSVTAADTAVYYCARDIGYGDHGTGSYYYGIEDWGQGTTVTVSS
VL: DIVMTQTPATLSLSPGDRATLSCRASQNIMSYLAWYQHKPGQPPRLLIYDASYRAAGIPARFSGSGSGTDFTLTISSLEPEDFAVYYCQQRTNWITFGQGTRLEIK
notes: full-length IgG from yeast; also called Antibody Number 318; Ab # 318
In the case of B3, the Kd was 0.445 nM in test [3] and 0.412 nM in test [4]. Moreover, the “Neut IC50 (µg/ml) subtype B” value in test [5] was 0.333 µg/mL. Moreover, the “Neut IC50 (µg/ml) subtype A” value in test [6] was over 10 µg/mL.

B4: ADI-18951 (antibody, V domains shown)
VH: QVQLVQSGGGLVQPGGSLRLSCAASGFAFSDYTMSWVRQAPGKGLEWVSSVSGTGGTSYYADSVNGRFAISRENSKNTLFLQMDSLRAEDTATYYCAKDGLRDVSRVYYIDVWGKGTTVTVSS
VL: QPVLTQPASVSGSPGQSITISCTGTSRDIGSHDSVSWYQQKPGKAPKLIIYAVRNRPSGLSNRFSGSKSGNTASLTISGLQTEDEGDYYCSSYRNGNALGVFGTGTKVTVL
notes: full-length IgG from yeast
In the case of B4, the Kd in test [3] amounted to 5.35 nM; in test [4], 1.13 nM. Besides, in test [5], the “Neut IC50 (µg/ml) subtype B” value is over 10 µg/mL. Also, the “Neut IC50 (µg/ml) subtype A” value in test [6] was 3.4 µg/mL.

B5: ADI-18952 (antibody, V domains shown)
VH: QVQLVESGGGLVQPGGSLRLSCAASGFAFSNYAMSWVRQAPGKGLEWVSSVSGTGGTTYYADSVNGRFAISRENSRNTLYLQMDSLRVEDTATYYCAKDGLRDLSRVYYIDVWGKGATVTVSS
VL: QSVLTQPASVSGSPGQSITISCTGTSRDIGSHDYVSWYQQHPGKAPKLIIYGVNNRPSGLSNRFSGSKSGNTASLTISGLQTEDEGDYYCSSYRNGNTLGVFGTGTKLTVL
notes: full-length IgG from yeast
On to B5, for which the Kd was 1.01 nM in test [3] and 0.633 nM in test [4]. Moreover, the “Neut IC50 (µg/ml) subtype B” value in test [5] was determined as 2.75 µg/mL. Also, the “Neut IC50 (µg/ml) subtype A” value in test [6] worked out at 1.59 µg/mL.

B6: ADI-18976 (antibody, V domains shown)
VH: EVQLVETGPGLVKPSETLSLTCTVSGDSISGYYWSWIRQSPGKGLEWIGYIYYRGSTDYNPSLKSRVTISVDTSKNQFSLKLSSVTAADTAVYYCARDNKHHDSGNYYAYFDHWGQGTLVTVSS
VL: DIVMTQSPSSLSASVGDRVTITCRASQNINTFLNWYQHKPGKAPKLLIYGASRLQSGVPSRFTGSGSGTDFTLTISSLQPEDFATYSCQQSYTTRLTFGGGTKVEIK
notes: full-length IgG from yeast
For the molecule B6, the Kd in test [3] was 1.24 nM; in test [4], 0.209 nM. For the same molecule, the “Neut IC50 (µg/ml) subtype B” value in test [5] was determined as 10.6 µg/mL. In test [6], the “Neut IC50 (µg/ml) subtype A” value was 6.29 µg/mL.

B7: ADI-19010 (antibody, V domains shown)
VH: EVQLVESGGGLVKPGGSLRLSCAASGFTFSSYSMNWVRQAPGKGLEWVSSISSSSSYIYYADSVKGRFTISRDNAKNSLYLQMNSLRAEDTAVYYCARDVQYSGYDSGYYFDYWGQGTLVTVSS
VL: QPVLTQPPSVSGAPGQRVTISCTGSSSNIGAGYDVHWYQQLPGTAPKLLIYGNSNRPSGVPDRFSGSKSGTSASLAITGLQAEDEADYYCQSYDSSLSALYVFGTGTKVTVL
As for B7, the “Neut IC50 subtype B” value in test [1] stood at 0.65 µg/mL. The “Neut IC50 subtype A” value in test [2] is over 10 µg/mL.

B8: ADI-19016 (antibody, V domains shown)
VH: QVQLVESGGGLVKPGGSLRLSCVASGFTFSSYAMNWVRQAPGKGLDWVSSISAGSNFIDDADSVKGRFTISRDNARNSLFLQMNSLRAEDTAVYYCARIGYSSAHHYQYYMDVWGTGTTVTVSS
VL: QSVLTQPPSVSGAPGQRVTISCTGSSSNIGAGYDVHWYQDLPGTAPKLLIYGNTNRPSGVPDRFSGSKSGASASLVITGLQAEDEADYYCQSYDKSLSGGYVFGTGTKVTVL
Regarding B8, in test [1], the “Neut IC50 subtype B” value is 0.092 µg/mL. For the same molecule, the “Neut IC50 subtype A” value in test [2] is 0.052 µg/mL.

B9: ADI-19017 (antibody, V domains shown)
VH: QVQLVQSGAEVKKPGASVRVTCKASGYTFTDYFMNWVRQAPGGGLEWMGWINPLSGVTKYAQQFQGSVTMTTDTSITTGYMELRSLRVDDTAVYYCASQSSPYTPGAMGVWGQGTTVTVSS
VL: SYELIQLPSVSVSPGQTARITCSGDALPKQYAYWYQQKPGQAPVLVIYKDSERPSGIPERFSGSSSGTTVTLTISGVQAEDEADYYCQSADSSGTYPVVFGGGTKLTVL
B9: the “Neut IC50 subtype B” value in test [1] was determined as 0.795 µg/mL. Besides, in test [2], the “Neut IC50 subtype A” value came to 1.56 µg/mL.

B10: ADI-19008 (antibody, V domains shown)
VH: EVQLVESGGGVVQPGRSLRLSCVASGFSFSAYGMHWVRQVPTKGLEWVAVISYDGRDIYYTDSVKGRFTISRDNSKNMLYLQMNSLRPEDRAVYYCARDPSLGYNNHYFDYWGQGTLVTVSS
VL: EIVLTQSPATLSLSPGETATLSCRASQSVTGNLAWYQQKPGQAPRLLIYAASNRATGIPARFSGSGSGTDFTLTISSLEPEDFAVYFCQQRSNWPPMYSFGQGTKLEIK
Turning to B10, the “Neut IC50 subtype B” value in test [1] is over 10 µg/mL. The “Neut IC50 subtype A” value in test [2] came to 8.29 µg/mL.

B11: ADI-18973 (antibody, V domains shown)
VH: QVQLVQSGPALVKPTQTLTLTCTFGGFSLSRHGMRVTWIRQAPGKALEWLGHIDWDDDKFYRTSLKTRLTISKDPSNNEVVLKMTNMDHVDTATYYCALMRPFWSRDDYYYSIAVWGKGTTVTVSS
VL: DIVLTQSPGTLSLSPGDRATLSCRASQSVGSGYVTWYQQKPGQAPRLLIYGASNRAEGIPDRFSGSGSGTDFTLTISGLESEDFVIYYCQLYHRSPGSASQTVWTFGQGTKVEIK
notes: full-length IgG from yeast
On to B11, for which the Kd worked out at 2.63 nM in test [3] and 0.394 nM in test [4]. In addition, the “Neut IC50 (µg/ml) subtype B” value in test [5] was found to be 6.27 µg/mL. Further, in test [6], the “Neut IC50 (µg/ml) subtype A” value was 9.61 µg/mL.

B12: ADI-18885 (antibody, V domains shown)
VH: EVQLQESGPGLVKPLQTLSVTCSVSGGSISSGDNYWSWIRQRPGKGLEWIGYIYYSGTTYYNPSLKSRVTISADRSKNQFSLKMNSLSAADTAVYYCARDGGYDHIWGTHRYFALWGQGTLVTVSS
VL: ETTLTQSPGTLSLSPGERATLSCRASQSVNSDYLAWYQQKLGQAPRLLIYGVSNRATGIPDRFTGSGSGTDFTLTISRLEPEDFAVYHCQQYGTSPWTFGQGTKVEIK
notes: full-length IgG from yeast; also called Antibody Number 241; Ab # 241
On to B12, for which the dissociation constant (Kd) in test [3] is 3.89 nM; in test [4], 0.307 nM. In addition, the “Neut IC50 (µg/ml) subtype B” value in test [5] came to 8.63 µg/mL. Besides, the “Neut IC50 (µg/ml) subtype A” value in test [6] turned out to be 0.376 µg/mL.

B13: ADI-19009 (antibody, V domains shown)
VH: QVQLVQSGAEVKRPGSSVKVSCKASGGTFRGYHISWVRQAPGQGLEWMGGIIHLFGTVSYAPKFQGRVTITADASTGTAHMELSSLTSDDTAIYYCARDAYEVWTGSYLPPFDYWGQGTLVTVSS
VL: DIVMTQTPGTLSLSPGERVTLSCRASQTVTSSYLAWYQQKPGQAPRLLIYGAFTRATGIPDRFSGSGSGTDFTLTISRLEPEDFAVYYCQQYGSSFLTFGGGTKLEIK
In the case of B13, in test [1], the “Neut IC50 subtype B” value was determined as 0.066 µg/mL. The “Neut IC50 subtype A” value in test [2] came to 0.062 µg/mL.

B14: ADI-18888 (antibody, V domains shown)
VH: QVQLVESGGGVVQPGRSLRLSCVASGFSFSMHGMHWVRQAPGKGLEWVTAIWYDGSNKYYADSVKGRFTISRDNSRNTLYLQMNSLRAEDTAVYYCARDHASTPYYMDVWGKGTTVTVSS
VL: ETTLTQSPGTLSLSPGESATLSCRTSQRISSTYLAWYRQKPGQAPRLLMYGASSRATGIPDRFSGSGSGTDFTLTISSLEPEDFALYYCQQYGSFPWTFGQGTKLEIK
notes: full-length IgG from yeast; also called Antibody Number 243; Ab # 243
B14 gave a Kd in test [4] of 1.16 nM. Besides, the “Neut IC50 (µg/ml) subtype B” value in test [5] was over 10 µg/mL. Moreover, in test [6], the “Neut IC50 (µg/ml) subtype A” value is over 10 µg/mL.

B15: ADI-18906 (antibody, V domains shown)
VH: EVQLVESGGGVVQPGRSLRLSCVASGFSFSMHGMHWVRQAPGKGLEWVTAIWYDGSNKYYADSVKGRFTISRDNSRNTLYLQMNSLRAEDTAVYYCARDHASTPYYMDVWGKGTTVTVSS
VL: ETTLTQSPGTLSLSPGESATLSCRTSQRISSTYLAWYRQKPGQAPRLLMYGASSRATGIPDRFSGSGSGTDFTLTISSLEPEDFALYYCQQYGSFPWTFGQGTKVEIK
notes: full-length IgG from yeast
B15 showed a Kd in test [4] of 1.1 nM. The “Neut IC50 (µg/ml) subtype B” value in test [5] was over 10 µg/mL. In test [6], the “Neut IC50 (µg/ml) subtype A” value is over 10 µg/mL.

B16: ADI-19011 (antibody, V domains shown)
VH: EVQLVESGGGVVQPGGSLRLSCAGSGFAFGSFAMHWVRQAPGKGLEWVAVISFDGKNTKYADSVKGRFTTSRDNSRNTLYLQMDSLRGDDTAIYYCATIRGIVAGLCDNWGQGTLVTVSS
VL: QPVLTQSSSDSASLGASVKLTCTLSSGHRNYIIAWHQQQPGKAPRFLMKVEGSGSFTMGSGVPDRFSGSSSGADRYLTISNLQSEDEADYYCEAWDFNTGGVFGGGTQLTVL
As for B16, the “Neut IC50 subtype B” value in test [1] came to 6.24 µg/mL. Also, the “Neut IC50 subtype A” value in test [2] was over 10 µg/mL.
